Reference: patent publication US20130225503A1, “TEX14 PEPTIDES AS NOVEL ANTITUMOR AGENTS” (Baylor Licnensing Group, priority 2009, published 2013)

How the values were obtained:
CEP55 (C1) hinge region = target: T1, CEP55 (C1) hinge region (Mus musculus, UniProt Q8BT07); assay: Yeast two-hybrid assay of truncated TEX14 with the CEP55 hinge fragment C1; format: binding; conditions: 80-amino-acid fragment of CEP55 containing the hinge region; FIG. 3A to C
T1 construct: an 80-amino-acid fragment of CEP55 (C1) that contains the hinge region; expressed in transfected cells; host or cells: yeast (Matchmaker Two-Hybrid System 3, Clontech)
T1 sequence (Q8BT07 157-235 limits assumed): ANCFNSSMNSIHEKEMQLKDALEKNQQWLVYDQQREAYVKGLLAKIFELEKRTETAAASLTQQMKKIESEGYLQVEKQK
Procedure: (§1) Protein-protein interactions were evaluated by using the Matchmaker Two-Hybrid System 3 (Clontech) as described previously (10). Mouse full-length TEX14 and MLKP1 were previously subcloned into the Matchmaker GAL4 two-hybrid pGBKT7 and pGADT7 vectors (10). The constructs of full-length mouse and human CEP55, human TEX14, truncated mouse CEP55-C1, and truncated mouse TEX14-T1, T2, T1[…]T2, T3, T4, and T4-C were made by using the Matchmaker GAL4 two-hybrid pGBKT7 bait vector and pGADT7 prey vectors. Some Y2H interactions were examined with an oxygen biosensor assay (Clontech PT3584-1) that measured the fluorescence emitted by an oxygen-sensing platform that detects GAL4.
To determine the relevance of this GPPX3Y motif as it relates to the interaction of TEX14 with CEP55, we performed yeast two-hybrid assays with mouse TEX14 amino acids 756 to 815 that contain the GPPX3Y motif (FIG. 3A). These 60 amino acids interacted with full-length CEP55 (FIGS. 3B and C). Conversely, an 80-amino-acid fragment of CEP55 (C1) that contains the hinge region interacted with full-length TEX14, the C terminus (T3), and GPPX3Y-containing fragment (T4) but not a shorter sequence that lacked the GPPX3Y motif (T4-C) (FIG. 3A to C). Thus, similar GPPX3Y-containing regions of TEX14, ALIX, and TSG101 interact with the hinge region of CEP55.

[1] = target: the molecule itself; assay: yeast two-hybrid, full-length proteins, oxygen biosensor and selection plates
Procedure: (A) Immunoprecipitation (IP) of FLAG-TEX14 and/or MYC-CEP55 from HEK293T cells, followed by Western blot analysis with the antibodies as shown. Immunoprecipitation of protein G (lanes G) is the control. (B) Yeast two-hybrid analyses using vectors encoding full-length mouse TEX14, MKLP1, CEP55, and positive and negative controls. The relative ratios of TEX14-TEX14, TEX14-MKLP1, and TEX14-CEP55 interactions were determined by using an oxygen-biosensor system. (C) Yeast two-hybrid interactions of mouse and human full-length TEX14 and CEP55. (a) Yeast were stably transformed with vectors and plated for yeast two-hybrid analysis as depicted. SV40 T antigen with p53 and SV40 T antigen with lamin C were used as positive and negative controls, respectively. (b) Interactions between the two-hybrid proteins are evident by colony growth and blue color on selection plates.
as §1
Since both CEP55 and TEX14 interact with MKLP1 (10, 22), it was determined whether CEP55 and TEX14 are components of the intercellular bridge as direct or indirect interactors. The inventors first overexpressed full-length FLAG-TEX14 and MYC-CEP55 constructs in HEK293T cells (FIG. 2A). […] Likewise, when the inventors immunoprecipitate with anti-MYC antibody, they immunoprecipitate both MYC-CEP55 and FLAG-TEX14.

“T4: GPPX3Y-containing fragment of mouse TEX14, amino acids 756 to 815 (EVEELEWAQKELDSQCSSLRDASLKFANAKFQPAVGPPSLAYLPPVMQLPGLKQPENGGT; UniProt Q7M6U3 756-815, looked up, fragment)” was tested, and the “yeast two-hybrid interaction with CEP55 fragment C1” value (CEP55 (C1) hinge region) was “interacted”.

B1: full-length mouse TEX14 (other, UniProt Q7M6U3 1-1450, looked up)
chain: MSRGAPFPVPCPVLLGTFTDDSLEAQLHEYAKQGNCVKLKKILKKGVCVDAVNTQGQSALFVAALLGHVKLVDVLVDYGSDPNHRCFDGSTPVHAAAFSGNQWILSKLLTAGGDLRLHDEKGRNPQAWALTAGKDRSTQMVEFMQRCTSHMKAIIQGFSYDLLKKIDSPQRLIGSPPWFGSLIQGSPNSSPNRQLKPGIISAQNIYSFGFGKFYLTSGMQLTYPGSLPVIGEKEVVQADDEPTFSFFSGPYMVMTNLVWNRSRVTVKELNLPTRPHCSRLRLADLLIAEQEHSSNLRHPNLLQLMAVCLSRDLEKIRLVYERITVGTLFSVLHERRSQFPVLHMEVIVHLLLQVADALIYLHSRGFIHRSLSSYAVHIVSAGEARLTNLEYLTESQDSGAHRNVTRMPLPTQLYNWAAPEVVLQKAATVKSDIYSFSVIIQEILTDSIPWNGLDGSLVKETIALGNYLEADVRLPEPYYDIVKSGIHAKQKNRTMNLQDIRYILKNDLKEFIGAQKTQPTESPRGQSYEPHPDVNICLGLTSEYQKDPPDLDIKELKEMGSQPHSPTDHSFLTVKPTLAPQTLDSSLSAQKPDNANVPSPPAACLAEEVRSPTASQDSLCSFEINEIYSGCLTLGTDKEEECLGTAASPEGDRPNQGDELPSLEEELDKMERELHCFCEEDKSISEVDTDLLFEDDDWQSDSLGSLNLPEPTREAKGKTSSWSKTDEYVSKCVLNLKISQVMMQQSAEWLRKLEQEVEELEWAQKELDSQCSSLRDASLKFANAKFQPAVGPPSLAYLPPVMQLPGLKQPENGGTWLTLARSPGNEREFQEGHFSKKPEKLSACGWKPFTQVSEESRGDCSELNNQLPTLRGPGKQSTGEQLPSTQEARESLEKNTNQNSRSMASVSSEIYATKSRNNEDNGEAHLKWRLAVKEMAEKAVSGQLLLPPWNPQSSAPFESKVENESTPLPRPPIRGPESTEWQHILEYQRENDEPKGNTKFGKMDNSDCDKNKHSRWTGLQRFTGIRYPFFRNHEQPEQNEASQASCDTSVGTEKFYSTSSPIGDDFERFQDSFAQRQGYVEENFQIREIFEKNAEILTKPQFQAIQCAEDKQDETLGETPKELKEKNTSLTDIQDLSSITYDQDGYFKETSYKTPKLKHAPTSASTPLSPESISSAASHYEDCLENTTFHVKRGSTFCWNGQEAMRTLSAKFTTVRERAKSLESLLASSKSLPAKLTDSKRLCMLSETGSSNVSAAFVTSTHATKRKSLPRELAEATSQQHLDELPPPAQELLDEIEQLKQQQVSSLASHENTARDLSVTNKDKKHLEEQETNSSKDSSFLSSREIQDLEDTERAHSSLDEDLERFLQSPEENTALLDPTKGSTREKKNKDQDVVEQKRKKKESIKPERRESDSSLGTLEEDELKPCFWKRLGWSEPSRIIVLDQSDLSD
notes: whole, on cells; In the yeast two-hybrid assay it stood as a fusion with a GAL4 domain (pGBKT7 bait or pGADT7 prey vector)
B1: binds [1].
